Measurements as given in patent US20260242478A1 (published 2026).
Where no end group is shown, it is not given here.

B1: Phage-2771 (peptide)
peptide: QMHWCMPPWMCEGI
modifications: cysteine pairing not given here; also: fused to pIII, displayed on bacteriophage
B2: Phage-2649 (peptide)
peptide: TWKWCTPAWMCSVM
modifications: cysteine pairing not given here; also: displayed on phage as pIII fusion, fusion junction and sequence not given here
notes: Clonal phage of the Peptide-180 library, tested as crude phage supernatant; not shown: pIII filament protein of the bacteriophage
B3: Phage-2648 (peptide)
peptide: EYKWCTPIWMCQGN
modifications: cysteine pairing not given here; also: displayed on phage as pIII fusion, fusion junction and sequence not given here
notes: as for B2
B4: Phage-2773 (peptide)
peptide: VPKWCTPSWMCASN
modifications: cysteine pairing not given here; also: fused to pIII, displayed on bacteriophage
B5: Phage-2647 (peptide)
peptide: LVKWCIPDWMCSLS
modifications: cysteine pairing not given here; also: displayed on phage as pIII fusion, fusion junction and sequence not given here
notes: as for B2
B6: Phage-2646 (peptide)
peptide: QPKWCTPDWMCTGI
modifications: cysteine pairing not given here; also: displayed on phage as pIII fusion, fusion junction and sequence not given here
notes: as for B2

How the values were obtained:
PSMA Fab [1] = biological target: T1, PSMA Fab; experiment: clonal phage ELISA on captured PSMA Fab pre-incubated with PSMA antigen as competitor, anti-M13 HRP detection;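 note: crude clonal phage supernatants tested by ELISA, wells first treated with blocking buffer plus PSMA antigen, bound phage read out via HRP-linked anti-M13 antibody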
T1 construct: Biotinylated PSMA Fab captured on neutravidin coated plates in the phage ELISA; also called Anti-PSMA Fab; 006 PSMA Fab
Protocol: (§1) Clonal phage were harvested as crude supernatants and screened via standard ELISAs. […] Prior to the addition of clonal phage. wells were incubated with blocking buffer and PSMA antigen or blocking buffer alone. Without washing or aspirating, clonal phage supernatants were then added to the wells and incubated for a short time. Wells were then washed followed by detection of bound phage using a horse radish conjugated anti-M13 antibody.

PSMA Fab [2] = biological target: T1, PSMA Fab; experiment: clonal phage ELISA on biotinylated PSMA Fab captured on neutravidin plates, anti-M13 HRP detection;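 note: crude clonal phage supernatants tested, before phage were added, wells were pretreated with PSMA antigen in blocking buffer or with blocking buffer only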
Protocol: as §1

PSMA Fab (006 PSMA Fab) [3] = biological target: T2, PSMA Fab (006 PSMA Fab) (biotinylated (site not given)); experiment: clonal phage ELISA; biotinylated PSMA Fab on neutravidin plate, blocking buffer alone; anti-M13 HRP detection;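 note: crude clonal phage supernatants added without washing to wells pretreated with blocking buffer with or without PSMA antigen, short incubation, then washed before detecting bound phage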
T2 construct: also called Anti-PSMA Fab; anti-PSMA Fab

PSMA Fab (006 PSMA Fab) [4] = biological target: T2, PSMA Fab (006 PSMA Fab); experiment: clonal phage ELISA; biotinylated PSMA Fab on neutravidin plate, wells pre-incubated with PSMA antigen as competitor; anti-M13 HRP detection;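 note: crude clonal phage supernatants added to antigen-treated wells without a wash, incubated briefly, then bound phage read out via horse radish–conjugated anti-M13 antibody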
Protocol: as §1

PSMA Fab (006 PSMA Fab) [5] = biological target: T3, PSMA Fab (006 PSMA Fab); experiment: clonal phage ELISA on captured PSMA Fab, wells pre-incubated with PSMA antigen as competitor, anti-M13 HRP detection;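 note: crude clonal phage supernatants added, with no intervening wash, to wells preincubated with PSMA antigen in blocking buffer, incubated briefly, then washed before detecting bound phage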
T3 construct: also called Anti-PSMA Fab; anti-PSMA Fab
Protocol: as §1

PSMA Fab (006 PSMA Fab) [6] = biological target: T3, PSMA Fab (006 PSMA Fab); experiment: clonal phage ELISA on biotinylated PSMA Fab captured on neutravidin plates, anti-M13 HRP detection;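 note: crude clonal phage supernatants tested, before phage were added, wells were pretreated with PSMA antigen in blocking buffer or with blocking buffer only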
Protocol: as §1

PSMA Fab [7] = biological target: T4, PSMA Fab (biotinylated (site not stated)); experiment: phage ELISA, biotinylated PSMA Fab on neutravidin plate, anti-M13-HRP detection, blocking buffer alone
T4 construct: Biotinylated PSMA Fab captured on neutravidin plates in the phage ELISA; also called Anti-PSMA Fab; 006 PSMA Fab

PSMA Fab [8] = biological target: T4, PSMA Fab; experiment: phage ELISA, biotinylated PSMA Fab on neutravidin plate, anti-M13-HRP detection, competitor PSMA antigen pre-incubated
Protocol: as §1

Binder	Phage binding ELISA signal, Anti-PSMA Fab with PSMA antigen (PSMA Fab (006 PSMA Fab) [5])	Phage binding ELISA signal, Anti-PSMA Fab (PSMA Fab (006 PSMA Fab) [6])	Phage binding ELISA signal, Anti-PSMA Fab (PSMA Fab [7])	Phage binding ELISA signal, Anti-PSMA Fab with PSMA antigen (PSMA Fab [8])	further results
B1	–	–	–	–	phage binding ELISA signal (Anti-PSMA Fab, PSMA antigen present) (PSMA Fab [1]): 0.0705; Phage binding ELISA signal, Anti-PSMA Fab (PSMA Fab [2]): 0.65
B2	–	–	–	–	Phage binding ELISA signal, Anti-PSMA Fab (PSMA Fab (006 PSMA Fab) [3]): 0.947; Phage binding ELISA signal, Anti-PSMA Fab with PSMA antigen (PSMA Fab (006 PSMA Fab) [4]): 0.113
MSKWCVPTWMCQWQ [Phage-2741]	0.0979	0.711	–	–	–
APKWCTPSWMCQQV [Phage-2661]	–	–	0.908	0.121	–
IMKWCTPTWMCEMG [Phage-2743]	0.122	0.708	–	–	–
GNSWCTPQWMCTGF [Phage-2740]	0.0596	0.712	–	–	–
SMKMCTPPWMCEFA [Phage-2774]	–	–	–	–	phage binding ELISA signal (Anti-PSMA Fab, PSMA antigen present) (PSMA Fab [1]): 0.0631; Phage binding ELISA signal, Anti-PSMA Fab (PSMA Fab [2]): 0.641
FVNMCKPAWMCSLL [Phage-2655]	–	–	0.923	0.0949	–
FDKWCTPPWMCKVF [Phage-2744]	0.143	0.708	–	–	–
DVKWCKPRWMCNRD [Phage-2750]	0.0701	0.695	–	–	–
MPKWCTPQWMCEMY [Phage-2658]	–	–	0.92	0.0641	–
ANHWCIPSWMCTEV [Phage-2753]	0.162	0.692	–	–	–
GEHWCTPAWMCSVM [Phage-2659]	–	–	0.919	0.68	–
TNKLCIPTWMCSGF [Phage-2745]	0.0715	0.703	–	–	–
B3	–	–	–	–	Phage binding ELISA signal, Anti-PSMA Fab (PSMA Fab (006 PSMA Fab) [3]): 0.95; Phage binding ELISA signal, Anti-PSMA Fab with PSMA antigen (PSMA Fab (006 PSMA Fab) [4]): 0.0626
GNLWCSPPWMCFGM [Phage-2749]	0.0732	0.696	–	–	–
VVKMCKPLWMCGIS [Phage-2746]	0.0564	0.701	–	–	–
DPKWCTPSWMCDWR [Phage-2755]	0.0821	0.69	–	–	–
B4	–	–	–	–	phage binding ELISA signal (Anti-PSMA Fab, PSMA antigen present) (PSMA Fab [1]): 0.0608; Phage binding ELISA signal, Anti-PSMA Fab (PSMA Fab [2]): 0.643
EDIWCIPSWMCGVI [Phage-2751]	0.0663	0.694	–	–	–

Binder	Phage binding ELISA signal, Anti-PSMA Fab with PSMA antigen (PSMA Fab (006 PSMA Fab) [5])	Phage binding ELISA signal, Anti-PSMA Fab (PSMA Fab (006 PSMA Fab) [6])	Phage binding ELISA signal, Anti-PSMA Fab (PSMA Fab [7])	Phage binding ELISA signal, Anti-PSMA Fab with PSMA antigen (PSMA Fab [8])	further results
ETKWCIPVWMCEHK [Phage-2653]	–	–	0.934	0.122	–
HEKWCTPPWMCELI [Phage-2654]	–	–	0.929	0.0717	–
APHLCIPKWMCNPS [Phage-2664]	–	–	0.899	0.105	–
SEKWCTPAWMCGDM [Phage-2747]	0.0842	0.7	–	–	–
APQWCIPPWMCHDQ [Phage-2754]	0.0708	0.691	–	–	–
VQAWCVPQWMCNQF [Phage-2772]	–	–	–	–	phage binding ELISA signal (Anti-PSMA Fab, PSMA antigen present) (PSMA Fab [1]): 0.0631; Phage binding ELISA signal, Anti-PSMA Fab (PSMA Fab [2]): 0.646
ETSWCRPTWMCEGM [Phage-2752]	0.0587	0.693	–	–	–
B5	–	–	–	–	Phage binding ELISA signal, Anti-PSMA Fab (PSMA Fab (006 PSMA Fab) [3]): 0.952; Phage binding ELISA signal, Anti-PSMA Fab with PSMA antigen (PSMA Fab (006 PSMA Fab) [4]): 0.0865
SNHLCTPPWMCYGF [Phage-2652]	–	–	0.939	0.0665	–
AIKWCIPAWMCAQA (cysteine pairing not given here; also: displayed on phage as pIII fusion) [Phage-2656]	–	–	0.92	0.0786	–
DIKRCTPAWMCSWM [Phage-2742]	0.0807	0.709	–	–	–
VVKWCTPAWMCSLN [Phage-2663]	–	–	0.902	0.0846	–
VEKWCRPSWMCQQV [Phage-2660]	–	–	0.914	0.09	–
B6	–	–	–	–	Phage binding ELISA signal, Anti-PSMA Fab (PSMA Fab (006 PSMA Fab) [3]): 0.954; Phage binding ELISA signal, Anti-PSMA Fab with PSMA antigen (PSMA Fab (006 PSMA Fab) [4]): 0.105
EFKWCIPMWMCQAN [Phage-2665]	–	–	0.896	0.0753	–
DVKWCIPPWMCPSF [Phage-2650]	–	–	0.944	0.0771	–
LQNWCVPAWMCELM [Phage-2651]	–	–	0.941	0.068	–
DWKWCIPAWMCSQD [Phage-2748]	0.0645	0.697	–	–	–
LQKWCIPAWMCSST [Phage-2657]	–	–	0.92	0.0717	–
DYKWCTPPWMCLVD [Phage-2662]	–	–	0.904	0.083	–
